# Measured values as given in patent publication US12359240B2, “Membrane protease-based methods for detection of bacteria” (Nanyang Technological University, priority 2019, dated 2025).
# Where no end group is shown, it is not given here.
# Tests used:
# OmpT and PgtE = test: Substrate preference of OmpT versus PgtE, change in PT6 fluorescence with time; type: biochemical, E. coli K-12; Salmonella typhi; conditions: FIG. 15
# OmpT [1] = target: T1, OmpT (Escherichia coli, UniProt P09169); conditions: for rate of reduction in PT6 fluorescence (cleavage by OmpT) relative to the peptide of Examples 1-5: interpreted from the slope
# E. coli K12 = test: Detection of E. coli in contaminated water with the LL37 peptides and PT6; type: cell-based, Escherichia coli; conditions: 10^8 CFU/mL E. coli K12, FIG. 14A
# OmpT [2] = target: T1, OmpT
# OmpT [3] = target: T1, OmpT; remark: listed apart in the source
# Description: This OmpT was obtained by overexpressing the protein in E. coli BL21 as inclusion bodies using a protocol reported earlier [Kramer, R. A. Zandwijken, D. Egmond, M. R. Dekker, N. Eur. J. Biochem. 267, 885-893 (2000)]. Briefly, the inclusion bodies were unfolded and solubilized using 8 M urea and subsequently refolded in the presence of DodMe2NPrSO3, a zwitterionic detergent. The refolded OmpT was purified and stored at 4° C. for further use. […] To this 100 μL reaction mixture, 10 μL of PTAA stock solution (0.1 mg/mL) was added. Fluorescence measurements and absorbance scans were collected as mentioned before. The raw fluorescence (F.) intensity scans are either plotted as is or reported as % fluorescence increase. The following formula was applied to convert fluorescence intensity (a.u.) to % fluorescence increase: […]
# [4] = PTAA-peptide fluorescence and optical absorption measurements (no enzyme); conditions: 550 nm; peptide's highest concentration
# Description: All PTAA and LL37FRRY mixing were carried out in the reaction buffer. All optical absorption and fluorescence measurements were carried out on 100 μL samples in a flat bottom 96 well plate using a TECAN Infinite® 200 PRO(Switzerland). Optical absorption measurements were collected from 330-650 nm. […] To understand the effect of intact and cleaved fragments on the fluorescence intensity and optical absorption of PTAA, LL37FRRV, frag1LL37FRRV (SEQ ID NO: 47) and frag2LL37FRRV (SEQ ID NO: 48) were added in different ratios (10:0, 8:2, 6:4, 4:6, 2:8, 0:10) while keeping the total peptide concentration at 50 μM. The fluorescence intensity and optical absorption spectra were measured as mentioned before.
# OmpT [5] = target: T1, OmpT; conditions: 20 μM peptide, OmpT 6 hours, FIG. 17
# [6] = PT6-peptide fluorescence measurements (no enzyme); conditions: FIG. 18
# Description: Stock solutions of PT6 was prepared in a reaction buffer such that the absorbance at λmax was ˜1.4. All absorbance and fluorescence measurements were carried out on 100 μL samples in a flat bottom 96 well plate using a TECAN Infinite® 200 PRO (Switzerland). Fluorescence scans were collected by exciting the samples at 495 nm, further recording their emission spectrum from 525-750 nm. […] In order to study the effect of cysteine on PT6 fluorescence, different concentrations (150-6.25 μM) of the two peptides (Table 12) were prepared from the stock and mixed with PT6 such that the final concentration of the PT is a 10 time dilution of the stock. The fluorescence intensities were measured as described above.
# T1 sequence (P09169 21-317): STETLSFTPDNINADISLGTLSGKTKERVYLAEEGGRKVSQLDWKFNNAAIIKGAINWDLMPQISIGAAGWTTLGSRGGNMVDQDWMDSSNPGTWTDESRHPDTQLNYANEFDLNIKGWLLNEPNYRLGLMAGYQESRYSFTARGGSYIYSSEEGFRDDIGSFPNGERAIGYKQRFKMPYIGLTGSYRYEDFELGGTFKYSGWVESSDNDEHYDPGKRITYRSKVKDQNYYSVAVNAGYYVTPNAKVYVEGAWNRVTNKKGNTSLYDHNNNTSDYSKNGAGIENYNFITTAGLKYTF
substance,measurement,setting,value
C L L G D F A R R A K E K I G (CLLGDFARRAKEKIG; LL37ARRA),substrate preference of OmpT compared with PgtE,OmpT and PgtE,OmpT exhibits a higher preference
C L L G D F F R R A K E K I G (CLLGDFFRRAKEKIG; LL37FRRA),rate of reduction in PT6 fluorescence (cleavage by OmpT) relative to the peptide of Examples 1-5,OmpT [1],faster rate
same,rate of reduction in PT6 fluorescence,E. coli K12,faster rate
C L L G D F F R R V K E K I G (CLLGDFFRRVKEKIG; LL37FRRV),times better then original peptide (substrate specific for OmpT),"OmpT [2]; SAMDI-MS peptide array, versus original peptide",400 times
same,increase in PTAA fluorescence intensity when mixed with OmpT-cleaved peptide fragments,OmpT [3]; peptide treated with OmpT in detergent micelles,no more than 20%
C L L G D F F R R Y K E K I G (CLLGDFFRRYKEKIG; LL37FRRY),incubation time with OmpT of the sample showing colour change from bronze to purple,"OmpT [1]; PT6, normal visible light, FIG. 13B top",70 min
same,rate of reduction in PT6 fluorescence (cleavage by OmpT) relative to the peptide of Examples 1-5,OmpT [1],faster rate
same,overall increase in PTAA's fluorescence intensity upon peptide addition,[4],~200%
same,difference in PTAA fluorescence intensity between intact peptide and peptide digested with OmpT,OmpT [5],largest difference
same,"PT6 fluorescence intensity, peptide with versus without terminal cysteine",[6],much higher fluorescence intensity
same,rate of reduction in PT6 fluorescence,E. coli K12,faster rate
same,PTAA's fluorescence intensity less than with peptide in the absence of OmpT,"OmpT [3]; 42 nM OmpT, 2 hours, 50 μM peptide",~175%
C L L G D F Y R R A K E K I G (CLLGDFYRRAKEKIG; LL37YRRA),rate of reduction in PT6 fluorescence (cleavage by OmpT) relative to the peptide of Examples 1-5,OmpT [1],faster rate
same,rate of reduction in PT6 fluorescence,E. coli K12,faster rate
FRRV: library peptide of type AcGX1RRX2GC carrying the tetrapeptide sequence FRRV at the cleavage site (Ac-GFRRVGC),cleavage by OmpT of library peptide AcGX1RRX2GC,OmpT [2]; tetrapeptide sequence at the cleavage site,efficiently cleaved
